Test results reported in patent US20220356210A1, “A SERIES OF INJECTABLE HYDROGELS SELF-ASSEMBLED FROM SHORT PEPTIDES FOR VARIOUS BIOMEDICAL APPLICATIONS” (Agency for Science, Technology and Research, priority 2019, published 2022).
No end group written: not given here.

What was measured:
[1] = test system: human primary keratinocytes; assay: In vitro cytotoxicity, MTT assay; type: cell-based; conditions: 24 h
Experimental: (§1) 1000 μL of HDFs or keratinocytes (10^5 cells per mL) were seeded onto the 12-well Transwell plates (Corning). IIK12 (1%) with various contents of antimicrobial peptides were dissolved in water and incubated at 37° C. overnight and 100 μL of gels were then transferred to the inserts of the Transwell plate. 1 mL of fresh medium was added into the inserts. The plates were incubated for 24 h before proceeding to MTT assay. It is noted that cells without any treatment and Mupirocin (GSK) were used as controls. The data were expressed as mean and standard deviation of three replicates and the tests were repeated 3 times.

[2] = test system: human dermal fibroblasts (HDFs); assay: In vitro cytotoxicity, MTT assay; type: cell-based; conditions: 2000 μg/mL, 24 h
Experimental: as §1

[3] = Gelation by vial tilting method; type: physicochemical
Experimental: The peptide powder was dissolved in water or other aqueous solutions at the required concentrations. Alternatively, the required salt may be added after the peptide aqueous solution is prepared. The hydrogel was formed by mixing the peptide aqueous solution and salt (if required). For example, the solution was vortexed and then incubated to form hydrogel. The hydrogel formed may be stored as formed, or may be dried, for example by freeze drying. Alternatively, the hydrogel may be formed as required. The gelation time was determined by the vial tilting method. […] Rheology experiments were performed at room temperature using a control-strain rheometer (ARES G2, TA instruments). The rheometer is equipped with two sensitive force transducers for torque ranging from 0.05 μN·m to 200 mN·m. The peptide powder was dissolved in water at concentrations ranging from 1.0 to 2.0 (w/v) %. The solution was vortexed and then incubated to form hydrogel. The gel was placed onto parallel-plate geometry (8 mm in diameter). The dynamic storage modulus (G′) and loss modulus (G″) were examined as a function of frequency from 1 to 100 rad/s. The measurements were carried out at a strain amplitude (y) to ensure the linearity of viscoelasticity. Flow sweep (viscosity changes as a function of shear rate) was also performed to study shear thinning properties of hydrogels.

[4] = Rheology, G′ and G″ at frequency of 1 Hz; type: physicochemical; conditions: incubated at 37° C. overnight
Experimental: The gelation time was determined by the vial tilting method. […] Rheology experiments were performed at room temperature using a control-strain rheometer (ARES G2, TA instruments). The rheometer is equipped with two sensitive force transducers for torque ranging from 0.05 μN·m to 200 mN·m. […] The solution was vortexed and then incubated to form hydrogel. The gel was placed onto parallel-plate geometry (8 mm in diameter). The dynamic storage modulus (G′) and loss modulus (G″) were examined as a function of frequency from 1 to 100 rad/s. The measurements were carried out at a strain amplitude (y) to ensure the linearity of viscoelasticity. Flow sweep (viscosity changes as a function of shear rate) was also performed to study shear thinning properties of hydrogels.

S. aureus [5] = assay: Killing kinetics test; type: cell-based; conditions: 24 h of incubation
Experimental: The microbes were treated with peptide hydrogels as described above. At various time periods of treatment, the microbial samples were diluted for plating (LB Agar, 1st Base). Incubation conditions: 18 h, 37° C. for bacteria. The colony-forming units were counted after the incubation period. The experiment was repeated in independent settings three times.

[6] = Dynamic step strain amplitude test; type: physicochemical; conditions: 2.0 (w/v) % in water
Description: The reduction of viscosity was attributed to the disruption of physical cross-links between the peptide molecules upon the application of shear stress. In order for a peptide gel construct containing a drug and/or cell/s to be delivered by syringe, it is essential that the disrupted gel with low viscosity could rapidly recover back into a stiff gel when the shear stress terminates. The ability of the peptide hydrogels to recover was investigated using a dynamic step strain amplitude test, where strain of 0.5% and 100% were periodically applied on the peptide hydrogels. […] After subjected 30 s of continuous high strain, the strain was reduced to 0.5%. […] This reversibility of peptide hydrogel in the presence of DMEM was further evaluated under the same conditions. […] The G′ value is reduced remarkably by ˜2000 times to ˜1 Pa when subjected a high stain of 100%. […] A similar phenomenon was also observed for IIK12 hydrogel, where the storage moduli of IIK12 hydrogel increased with increasing peptide concentrations (Table 5). […] This rheological behavior of the peptide hydrogels offers a great advantage for use as an injectable matrix for delivery of therapeutics such as drugs and cells. The fast recovery kinetics can be explained by the fact that the physical cross-links of the gel network immediately recovered after the high strain terminated.

S. aureus [7] = assay: Disk diffusion assay; type: cell-based; conditions: hydrogel cast on inoculated agar, one day at 37° C.
Experimental: Antimicrobial activity was further tested through a disk diffusion assay. Briefly, microbial suspension (S. aureus, ATCC No. 6538) with 3.5×10^6 CFU/mL (40 μL) was spread on 1.5% LB agar plates. Disks (Sigma) were prepared to contain 50 μL of peptides with various concentrations by dripping 50 μL of peptides solutions onto a sterile disk. Disks were air-dried for several minutes before being placed onto different zones in the agar plates. Hydrogels (100 μL) were placed onto LB agar plates. The plates were incubated for 24 h at 37° C.

E. coli = assay: Antimicrobial activity of peptide hydrogels (OD and agar plating); type: cell-based; conditions: control gel, IIK12 at 1%, no antimicrobial peptide
Experimental: (§2) Hydrogels for the antimicrobial assays were prepared in 96-well tissue culture plates (NUNC). Briefly, IIK12 (1%) with various contents of antimicrobial peptides was dissolved in water and vortexed. 50 μL of solution was transferred to the wells. Gelation occurred overnight at 37° C. The growth of microorganisms on hydrogels was measured using a broth dilution method. Briefly, 30 μL of microorganism suspension (3.5×10^5 CFU/mL) was introduced onto the hydrogels, and a 96-well plate and peptide hydrogel without antimicrobial peptides were used as controls. The optical density readings of bacterial solutions were monitored by measuring OD600 nm. The assay was performed in four replicates for each sample and the experiments were repeated at least three times. Antimicrobial activity was further tested through a spread plate method. Briefly, hydrogels were challenged with microorganism solution, at the end of treatment, microbial suspension on the hydrogel surface was withdrawn and diluted sequentially, and then plated on 1.5% LB agar plates. The plates were incubated for 24 h at 37° C. (48 h at room temperature for C. albicans). Microbial colonies were formed and counted. The experiments were performed in triplicate and were repeated three times.

S. aureus [8] = assay: as above; type: cell-based; conditions: control gel, IIK12 at 1%, no antimicrobial peptide
Experimental: as §2

C. albicans = assay: as above; type: cell-based; conditions: control gel, IIK12 at 1%, no antimicrobial peptide
Experimental: as §2

For `C/C(=C\C(=O)OCCCCCCCCC(=O)O)C[C@@H]1OC[C@H](C[C@@H]2O[C@H]2[C@@H](C)[C@H](C)O)[C@@H](O)[C@H]1O` [Mupirocin, reference compound], the Cell viability [1] was 80-90% and the Cell viability [2] was “more than 80%”.
For IRIKIEIEIRIK (IRIKIEIEIRIK-NH2) [IIK12], the “Lowest concentration at which hydrogels self-assembled” value ([3]; aqueous solution) was 0.6 (w/v) %, the “Gelation in DI water at 37° C. (via tilting)” value ([3]; peptide conc. 0.6, 1.0 %) was “Gel” and the “G′ (storage modulus)” value ([4]; 0.6 wt %, H2O) was 65 Pa. The “G″ (loss modulus)” value ([4]; 0.6 wt %, H2O) was 7 Pa, the “G′ (storage modulus)” value ([4]; 0.8 wt %, H2O) was 131 Pa and the “G″ (loss modulus)” value ([4]; 0.8 wt %, H2O) was 24 Pa. The “G′ (storage modulus)” value ([4]; 1.0 wt %, DMEM) was 1206 Pa, the “G″ (loss modulus)” value ([4]; 1.0 wt %, DMEM) was 176 Pa and the “G′ (storage modulus)” value ([4]; 1.0 wt %, H2O) was 279 Pa. The “G″ (loss modulus)” value ([4]; 1.0 wt %, H2O) was 48 Pa, the “G′ (storage modulus)” value ([4]; 1.5 wt %, H2O) was 598 Pa and the “G″ (loss modulus)” value ([4]; 1.5 wt %, H2O) was 66 Pa. For the same compound, the “G′ (storage modulus)” value ([4]; 2.0 wt %, H2O) was 865 Pa, the “G″ (loss modulus)” value ([4]; 2.0 wt %, H2O) was 69 Pa and the “Log (CFU)” value (S. aureus [5]) was 9.28. For the same compound, the “Rheological behavior in dynamic step strain amplitude measurement” value [6] was “reversible rheological behavior”, the “S. aureus colony formation on agar in contact with gel” value (S. aureus [7]) was “ineffective” and the “Killing of the microbes (OD measurement and agar plating)” value (from here on “Killing of the microbes”) (E. coli) was “ineffective”. The “Killing of the microbes” value (S. aureus [8]) was “ineffective” and the “Killing of the microbes” value (C. albicans) was “ineffective”.
